The text below walks through data of patent publication US20120014936A1 (SHIRE HUMAN GENETIC THERAPIES, published 2012).

The data set deals with the molecule itself. Kind of data set: SEC-HPLC with light scattering, self-association (homodimer). (Size exclusion chromatography separates by hydrodynamic size, large species first.)

B1: recombinant human heparan N-sulfatase (rhHNS), mature form (enzyme)
chain: RPRNALLLLADDGGFESGAYNNSAIATPHLDALARRSLLFRNAFTSVSSCSPSRASLLTGLPQHQNGMYGLHQDVHHFNSFDKVRSLPLLLSQAGVRTGIIGKKHVGPETVYPFDFAYTEENGSVLQVGRNITRIKLLVRKFLQTQDDRPFFLYVAFHDPHRCGHSQPQYGTFCEKFGNGESGMGRIPDWTPQAYDPLDVLVPYFVPNTPAARADLAAQYTTVGRMDQGVGLVLQELRDAGVLNDTLVIFTSDNGIPFPSGRTNLYWPGTAEPLLVSSPEHPKRWGQVSEAYVSLLDLTPTILDWFSIPYPSYAIFGSKTIHLTGRSLLPALEAEPLWATVFGSQSHHEVTMSYPMRSVQHRHFRLVHNLNFKMPFPIDQDFYVSPTFQDLLNRTTAGQPTGWYKDLRHYYYRARWELYDRSRDPHETQNLATDPRFAQLLEMLRDQLAKWQWETHDPWVCAPDGVLEEKLSPQCQPLHNEL
notes: In the immunohistochemistry it was detected in fixed monkey tissue after intrathecal dosing; also called sulfamidase; human HNS
Consider B1, for which the binding result was “binds”.
